Assay [1] addresses WT-Dsg2, complete extracellular region (EC1-5) of human desmoglein-2 (human) (UniProt Q14126). The experiment in a line: single-molecule AFM binding assay.
The target in assay [2] is Full-length I175D Pcad fused to a C-terminal mCherry tag (human). The experiment in a line: co-IP.
Assay [3] concerns the target Full-length W2A Pcad fused to a C-terminal mCherry tag (human). The assay is described as follows: co-IP.
The target of assay [4] is W2A-Dsg2, complete extracellular region (EC1-5) of human desmoglein-2 (human) (UniProt Q14126). The experiment in a line: single-molecule AFM binding assay.

In assay [1], “A5P-Pcad, complete ectodomain of human P-cadherin (from UniProt P22223 25-654) (domain or fragment)” displayed a binding probability of 4.5%.
On to “Desmoglein-2 (Dsg2), endogenous in A431 cells (from UniProt Q14126 50-1118) (natural protein)”, for which the Dsg2 binding capacity relative to WT-Pcad (Dsg2/Pcad pull-down ratio) amounted to 80% in assay [2] and 25% in assay [3].
“I175D-Pcad, complete extracellular region (EC1-5) of human P-cadherin (from UniProt P22223 25-654) (domain or fragment)” registered a binding probability in assay [1] of 7.8%.
The same measure, in the same setting: in the case of “W2A-Pcad, complete extracellular region (EC1-5) of human P-cadherin (from UniProt P22223 25-654) (domain or fragment)” it was 4%.
In the case of “WT-Pcad, complete extracellular region (EC1-5) of human P-cadherin (from UniProt P22223 25-654) (domain or fragment)”, the binding probability came out at 8% in assay [1] and 4% in assay [4].

These data come from doi:10.1101/2025.09.15.676363.
